The results in this text go back to PMC10184318, “The fission yeast cytokinetic ring component Fic1 promotes septum formation” (Biology Open, 2023).

The test has as its target T1, Fic1-MBP (S. pombe, UniProt O94701 1-272).
T1 construct: Fic1 of S. pombe; The printed name puts MBP after Fic1; source: E. coli, purified (standard biochemistry techniques)
T1 sequence (looked up): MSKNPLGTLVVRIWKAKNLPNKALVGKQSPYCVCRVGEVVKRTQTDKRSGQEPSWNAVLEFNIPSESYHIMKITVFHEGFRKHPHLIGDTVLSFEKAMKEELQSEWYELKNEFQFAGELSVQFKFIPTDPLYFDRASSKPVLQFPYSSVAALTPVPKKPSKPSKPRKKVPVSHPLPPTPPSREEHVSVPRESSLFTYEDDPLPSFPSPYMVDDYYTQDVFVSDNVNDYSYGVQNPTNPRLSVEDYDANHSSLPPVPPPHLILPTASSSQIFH
Nature of the test: pull-down; in vitro binding assay with recombinant proteins, one bead-bound and one soluble; 20 mM Tris pH 7.4, 150 mM NaCl; 4°C, 1 h; three washes; SDS-PAGE and Coomassie staining. Conditions: both partners purified.

B1: Cyk3-SH3-GST (aa1-66) (domain or fragment, S. pombe, UniProt O14302 1-66, looked up)
chain: MSIPKQLPCMVRALYAWPGEREGDLKFTEGDLIECLSIGDGKWWIGRHINTNTQGIFPSNFVHCLD
notes: Cyk3 of S. pombe, SH3 domain, residues 1-66; The printed name puts GST after the SH3 domain (Cyk3-SH3-GST, against GST-Cdc15-SH3), which hints at a C-terminal GST; also called Cyk3's SH3 domain; source: E. coli, purified (standard biochemistry techniques)
As for B1, the binding result is given as “binds”.
